# In IntAct's records for PubMed 31515488:
# B1: Complex I assembly factor TIMMDC1, mitochondrial (Homo sapiens), Q9NPL8 (parent)
# chain: MEVPPPAPRSFLCRALCLFPRVFAAEAVTADSEVLEERQKRLPYVPEPYYPESGWDRLRELFGKDEQQRISKDLANICKTAATAGIIGWVYGGIPAFIHAKQQYIEQSQAEIYHNRFDAVQSAHRAATRGFIRYGWRWGWRTAVFVTIFNTVNTSLNVYRNKDALSHFVIAGAVTGSLFRINVGLRGLVAGGIIGALLGTPVGGLLMAFQKYSGETVQERKQKDRKALHELKLEEWKGRLQVTEHLPEKIESSLQEDEPENDAKKIEALLNLPRNPSVIDKQDKD
# partner: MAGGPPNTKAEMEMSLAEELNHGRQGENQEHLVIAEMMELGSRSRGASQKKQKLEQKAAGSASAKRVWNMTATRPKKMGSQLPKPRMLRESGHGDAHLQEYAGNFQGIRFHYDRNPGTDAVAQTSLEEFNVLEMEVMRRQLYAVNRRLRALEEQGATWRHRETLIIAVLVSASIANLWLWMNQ
# B2: L-fucose dehydrogenase (Homo sapiens), Q9BPX1 (parent)
# chain: MATGTRYAGKVVVVTGGGRGIGAGIVRAFVNSGARVVICDKDESGGRALEQELPGAVFILCDVTQEDDVKTLVSETIRRFGRLDCVVNNAGHHPPPQRPEETSAQGFRQLLELNLLGTYTLTKLALPYLRKSQGNVINISSLVGAIGQAQAVPYVATKGAVTAMTKALALDESPYGVRVNCISPGNIWTPLWEELAALMPDPRATIREGMLAQPLGRMGQPAEVGAAAVFLASEANFCTGIELLVTGGAELGYGCKASRSTPVDAPDIPS
# partner: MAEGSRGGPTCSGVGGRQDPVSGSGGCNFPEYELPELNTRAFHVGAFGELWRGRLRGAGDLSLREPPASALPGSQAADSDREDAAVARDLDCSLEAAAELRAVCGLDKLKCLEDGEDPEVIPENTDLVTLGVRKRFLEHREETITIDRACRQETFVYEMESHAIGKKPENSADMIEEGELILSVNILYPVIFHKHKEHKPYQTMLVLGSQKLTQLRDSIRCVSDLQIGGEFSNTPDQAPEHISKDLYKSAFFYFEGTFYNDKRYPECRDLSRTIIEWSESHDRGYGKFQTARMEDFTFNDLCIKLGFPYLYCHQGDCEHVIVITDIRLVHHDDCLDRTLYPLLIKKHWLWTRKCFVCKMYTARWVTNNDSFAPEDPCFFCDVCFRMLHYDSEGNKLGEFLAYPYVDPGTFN
# B3: Microtubule-associated protein RP/EB family member 1 (Homo sapiens), Q15691 (parent)
# chain: MAVNVYSTSVTSDNLSRHDMLAWINESLQLNLTKIEQLCSGAAYCQFMDMLFPGSIALKKVKFQAKLEHEYIQNFKILQAGFKRMGVDKIIPVDKLVKGKFQDNFEFVQWFKKFFDANYDGKDYDPVAARQGQETAVAPSLVAPALNKPKKPLTSSSAAPQRPISTQRTAAAPKAGPGVVRKNPGVGNGDDEAAELMQQVNVLKLTVEDLEKERDFYFGKLRNIELICQENEGENDPVLQRIVDILYATDEGFVIPDEGGPQEEQEEY
# B4: Notch homolog 2 N-terminal-like protein A (Homo sapiens), Q7Z3S9 (parent)
# chain: MCVTYHNGTGYCKCPEGFLGEYCQHRDPCEKNRCQNGGTCVAQAMLGKATCRCASGFTGEDCQYSTSHPCFVSRPCLNGGTCHMLSRDTYECTCQVGFTGKECQWTDACLSHPCANGSTCTTVANQFSCKCLTGFTGQKCETDVNECDIPGHCQHGGTCLNLPGSYQCQCLQGFTGQYCDSLYVPCAPSPCVNGGTCRQTGDFTFECNCLPETVRRGTELWERDREVWNGKEHDEN
# partner: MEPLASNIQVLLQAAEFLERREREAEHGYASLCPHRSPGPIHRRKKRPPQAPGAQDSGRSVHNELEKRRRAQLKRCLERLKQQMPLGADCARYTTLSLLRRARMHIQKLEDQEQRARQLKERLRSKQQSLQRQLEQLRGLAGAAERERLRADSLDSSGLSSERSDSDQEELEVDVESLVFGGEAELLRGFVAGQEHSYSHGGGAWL
# Variants of: B1
# Details: with fate1_human FATE1, Q969F0
row,Variant,effect of a mutation on the interaction
1,A164G,with no effect
2,P247S,with no effect
3,N76D,with no effect

# Variants of: B2
# Details: with snpc3_human SNAPC3, Q92966
row,Variant,effect of a mutation on the interaction
1,N31D,with no effect
2,R130W,disrupting interaction strength
3,G16W,disrupting interaction strength
4,A56T,with no effect

# Variants of: B3
# Details: with mare3_human MAPRE3, Q9UPY8
# Chain of mare3_human MAPRE3, Q9UPY8 (Q9UPY8 whole entry): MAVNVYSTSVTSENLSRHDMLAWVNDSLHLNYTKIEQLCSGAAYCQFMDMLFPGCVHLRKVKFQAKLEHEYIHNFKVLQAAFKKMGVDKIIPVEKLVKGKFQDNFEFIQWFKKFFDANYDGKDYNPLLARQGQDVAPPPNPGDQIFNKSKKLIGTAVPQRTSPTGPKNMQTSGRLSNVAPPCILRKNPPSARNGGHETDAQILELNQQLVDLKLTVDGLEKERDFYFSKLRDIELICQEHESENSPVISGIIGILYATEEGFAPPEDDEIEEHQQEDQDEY
row,Variant,effect of a mutation on the interaction
1,N201S,with no effect
2,I56V,with no effect

# Variants of: B4
# Details: with mad3_human MXD3, Q9BW11
row,Variant,effect of a mutation on the interaction
1,R74Q,with no effect
2,A115T,with no effect
